Non-standard residues stand in square brackets, D forms with d. Phe(4-(cis-4-COOH-cHex)) = N[C@@H](Cc1ccc([C@H]2CC[C@@H](C(=O)O)CC2)cc1)C(=O)O; dPro(4R-(4-pyridylmethyl)) = O=C(O)[C@H]1C[C@@H](Cc2ccncc2)CN1; Trp(βS-Me,4-F) = C[C@@H](c1c[nH]c2cccc(F)c12)[C@H](N)C(=O)O; Bip(4'-COOH) = N[C@@H](Cc1ccc(-c2ccc(C(=O)O)cc2)cc1)C(=O)O; Ala(1-bicyclo(1.1.1)pentyl) = N[C@@H](CC12CC(C1)C2)C(=O)O; dPro(4R-Bzl(4-F)) = O=C(O)[C@H]1C[C@@H](Cc2ccc(F)cc2)CN1; Ala(pyrimidin-5-yl) = N[C@@H](Cc1cncnc1)C(=O)O; Phe(4-COOH) = N[C@@H](Cc1ccc(C(=O)O)cc1)C(=O)O; Pro(cis-4-F) = O=C(O)[C@@H]1C[C@H](F)CN1; 4Pal = N[C@@H](Cc1ccncc1)C(=O)O; αMeS = C[C@](N)(CO)C(=O)O; Orn = NCCC[C@H](N)C(=O)O; Dab = NCC[C@H](N)C(=O)O; Aib = CC(C)(N)C(=O)O
Target: Recombinant human IL-1β (BioLegend 579404) (human, UniProt P01584 117-269)
Assay: cell-based or functional assay

Row | Binder | MRC5 IC50
1 | cyclo([Phe(4-(cis-4-COOH-cHex))][Ala(1-bicyclo(1.1.1)pentyl)][Phe(4-COOH)]G[Pro(cis-4-F)][Trp(βS-Me,4-F)][Aib]SW[Aib]SQ[Dab]G[dPro(4R-Bzl(4-F))]) (SMILES C[C@@H](c1c[nH]c2cccc(F)c12)[C@@H]1NC(=O)[C@@H]2C[C@H](F)CN2C(=O)CNC(=O)[C@H](Cc2ccc(C(=O)O)cc2)NC(=O)[C@H](CC23CC(C2)C3)NC(=O)[C@H](Cc2ccc([C@H]3CC[C@@H](C(=O)O)CC3)cc2)NC(=O)[C@H]2C[C@@H](Cc3ccc(F)cc3)CN2C(=O)CNC(=O)[C@H](CCN)NC(=O)[C@H](CCC(N)=O)NC(=O)[C@H](CO)NC(=O)C(C)(C)NC(=O)[C@H](Cc2c[nH]c3ccccc23)NC(=O)[C@H](CO)NC(=O)C(C)(C)NC1=O) [SEQ ID NO: 106] | 0.031 nM
2 | cyclo([Phe(4-(cis-4-COOH-cHex))][Ala(1-bicyclo(1.1.1)pentyl)][Phe(4-COOH)]G[Pro(cis-4-F)][Trp(βS-Me,4-F)][αMeS]EW[Aib]SQ[Dab]G[dPro(4R-Bzl(4-F))]) (SMILES C[C@@H](c1c[nH]c2cccc(F)c12)[C@@H]1NC(=O)[C@@H]2C[C@H](F)CN2C(=O)CNC(=O)[C@H](Cc2ccc(C(=O)O)cc2)NC(=O)[C@H](CC23CC(C2)C3)NC(=O)[C@H](Cc2ccc([C@H]3CC[C@@H](C(=O)O)CC3)cc2)NC(=O)[C@H]2C[C@@H](Cc3ccc(F)cc3)CN2C(=O)CNC(=O)[C@H](CCN)NC(=O)[C@H](CCC(N)=O)NC(=O)[C@H](CO)NC(=O)C(C)(C)NC(=O)[C@H](Cc2c[nH]c3ccccc23)NC(=O)[C@H](CCC(=O)O)NC(=O)[C@](C)(CO)NC1=O) [SEQ ID NO: 107] | 0.063 nM

Now from value to binder:

Row | MRC5 IC50 | Binder
3 | 0.036 nM | cyclo([Bip(4'-COOH)][Ala(1-bicyclo(1.1.1)pentyl)][Phe(4-COOH)]G[Pro(cis-4-F)][Trp(βS-Me,4-F)][Aib]SW[Aib][Ala(pyrimidin-5-yl)]Q[Orn]G[dPro(4R-(4-pyridylmethyl))]) (SMILES C[C@@H](c1c[nH]c2cccc(F)c12)[C@@H]1NC(=O)[C@@H]2C[C@H](F)CN2C(=O)CNC(=O)[C@H](Cc2ccc(C(=O)O)cc2)NC(=O)[C@H](CC23CC(C2)C3)NC(=O)[C@H](Cc2ccc(-c3ccc(C(=O)O)cc3)cc2)NC(=O)[C@H]2C[C@@H](Cc3ccncc3)CN2C(=O)CNC(=O)[C@H](CCCN)NC(=O)[C@H](CCC(N)=O)NC(=O)[C@H](Cc2cncnc2)NC(=O)C(C)(C)NC(=O)[C@H](Cc2c[nH]c3ccccc23)NC(=O)[C@H](CO)NC(=O)C(C)(C)NC1=O) [SEQ ID NO: 109]
4 | 0.024 nM | cyclo([Bip(4'-COOH)][4Pal][Phe(4-COOH)]G[Pro(cis-4-F)][Trp(βS-Me,4-F)][Aib]SW[Aib][Ala(pyrimidin-5-yl)]Q[Orn]G[dPro(4R-(4-pyridylmethyl))]) (SMILES C[C@@H](c1c[nH]c2cccc(F)c12)[C@@H]1NC(=O)[C@@H]2C[C@H](F)CN2C(=O)CNC(=O)[C@H](Cc2ccc(C(=O)O)cc2)NC(=O)[C@H](Cc2ccncc2)NC(=O)[C@H](Cc2ccc(-c3ccc(C(=O)O)cc3)cc2)NC(=O)[C@H]2C[C@@H](Cc3ccncc3)CN2C(=O)CNC(=O)[C@H](CCCN)NC(=O)[C@H](CCC(N)=O)NC(=O)[C@H](Cc2cncnc2)NC(=O)C(C)(C)NC(=O)[C@H](Cc2c[nH]c3ccccc23)NC(=O)[C@H](CO)NC(=O)C(C)(C)NC1=O) [SEQ ID NO: 108]
